Test results reported in the RNAGym collection of RNA variant scans (doi:10.1073/pnas.2313332121).
Fewer inactive variants are shown than the library holds.

B1: TPR 5TU (parent)
chain: GGAUCUUCUCGAUCUAACAAAAAAGACAAAUCUGCCACAAAGCUUGAGAGCAUCUUCGGAUGCAGAGGCGGCAGCCUUCGGUGGCGCGAUAGCGCCAACGUUCUCAACUAUGACACGCAAAACGCGUGCUCCGUUGAAUGGAGUUUAUCAUG

Variants of: B1
Assay: polymerase ribozyme fitness, log enrichment relative to wild type (log ratio); higher = more active; in vitro selection for triplet polymerase activity
Method in brief: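 In triplicate, a single round of in vitro selection was run on each mutant library, PCR-built and transcribed, covering one subunit of a heterodimeric triplet polymerase ribozyme. Frozen incubation at −7 °C followed annealing with a biotinylated primer, partner subunit and triplets, and extended constructs were then gel-excised, streptavidin-captured and taken through RT-PCR. Fitness is the logarithm of genotype enrichment over wild-type enrichment, from inverse-variance-weighted replicate averages of Illumina-sequenced inputs and outputs. […] only genotypes with ≥10 input reads and ≥1 read per output were kept.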

Variant | polymerase ribozyme fitness (log ratio)
A29U G59C A64G C96G U104C U109G | ≤ -4.2
A29C C54U G84A A97U | ≤ -4.2
A30G A106U A115U C116A A120G | ≤ -4.2
A29U A39G U55A G92A | ≤ -4.2
A29U U61A G67A C96U | ≤ -4.2
A28U A64G G68U G83U A121C G143A | ≤ -4.2
A28U G58A G88C G133A A138G G143U | ≤ -4.2
A29C C87U G94U A107C U127G G140A | ≤ -4.2
A30U U45G G50A A66G A113G G152A | ≤ -4.2
A28U U82G A137C | ≤ -4.2
A28U C32G C87U C99G | ≤ -4.2
A30G A60C A110G A113U A150G | ≤ -4.2
C27U A47G U77A C85U U146C | ≤ -4.2
A29G C57A C93A C96A U145G | ≤ -4.2
A28G G46A U55G C57A A73U C96A | ≤ -4.2
A29U G92C C95U A106C C114U G128U A138G | ≤ -4.2
A30G A64C A66U C99U U102A G117A U145G | ≤ -4.2
C27U C32G G50A C69A A97G U135G G140A | ≤ -4.2
A30G A47G G71C C87G U135G | ≤ -4.2
A29U G46C G50C C95G C114G | ≤ -4.2
A29C G94C A97G A98G U104G | ≤ -4.2

Variant | polymerase ribozyme fitness (log ratio)
A30U C96U | -3.12
C27G U78A G83U A91U G94C U135G G136C | -4.03
A29C A52G U61A A122U G141U | ≤ -4.2
A28G C54G C76U G94A | -4
A30U A41G A142G | -3.58
A28C C38A G46A A66C G71U U127G | ≤ -4.2
A30G C123U G133U C149G | ≤ -4.2
A28C C54A G100A | ≤ -4.2
A30G C38A U56A A107U A121C | ≤ -4.2
C27U G84A G88A | -4.04
A30G C54U A91U U102G U109G A110G G133C A147U | ≤ -4.2
A30U G68C G81C G94A A98C U104C | ≤ -4.2
C27U C36A A39C A41G G68A C93A A138G U139A | ≤ -4.2
A28U G84A C125U G126A G152U | ≤ -4.2
A28G G92U C93A | ≤ -4.2
C27U A37G U104G | -4.08
A28U C35A A41U U53A G59A C85U G128A | ≤ -4.2
A28C G50A A97U G124A A138C | ≤ -4.2
A29U A30G C51U A89G C149A | ≤ -4.2
A28G C43G G83U C93A U135G | ≤ -4.2
A28G U44A U45A C76G U111C G133U | ≤ -4.2

Variant | polymerase ribozyme fitness (log ratio)
A29U U77A C95G | ≤ -4.2
A30C U31A U44A U55A C57G C76G | ≤ -4.2
A30G A52C A60C C125U | ≤ -4.2
A28U G48C C85A A97U A122G G143A U146C | ≤ -4.2
C27U U53A G70U | -3.43
A28U G84U G86A G94A A98G C131A | ≤ -4.2
A28U A41C U61A C99A A122C | ≤ -4.2
A29U G62C G70A A137U A138C | ≤ -4.2
A28C C87A A107C | ≤ -4.2
A28U U44G A60C C85A U144C U148A | ≤ -4.2
A30C U56A C57G C87U U102G G143C | ≤ -4.2
C27U G128A | -4.04
A30C | -3.12
A30G | -2.24
A30U | -2.87
A30G C32G C85G U90C C93G U111G A113U | ≤ -4.2
A29C U55A | -3.74
A30C C51U G58U G80A | ≤ -4.2
A30G G83U G117A | ≤ -4.2
A28U A41U C93U U144C | -4.14
A30G C38U C54G C72G C75G C96G A147U | ≤ -4.2

Variant | polymerase ribozyme fitness (log ratio)
A29U C95A A106G U134A | ≤ -4.2
A30G A47U U53A C76G C96U C118A | ≤ -4.2
A29G U53A | -3.63
C27U C32U A40U A49C C54U C87U A89U A98U | ≤ -4.2
A28G C51A G80A | ≤ -4.2
A28G U44G C51U C75A C76G G84U G140A | ≤ -4.2
A28U A41G G42C G94C | ≤ -4.2
A29G G94U C114U G128A | ≤ -4.2
A30C A40C U56A A60G A66G A89U C93A C99U A106C G126U C131U U134A | ≤ -4.2
A28C C108A G136A | ≤ -4.2
A28U A41U G67C C93U | ≤ -4.2
A29U G48A A49C C87G | ≤ -4.2
A28U C96A A121U U148C | ≤ -4.2
A29U A97G A121G G140C | ≤ -4.2
A29G U31C A52G C57U C85U C87A A150U | ≤ -4.2
A29U A47C C54A G94A U102G A110G C132A | ≤ -4.2
A29G A52C G74A G92U C95G | ≤ -4.2
A28U U31C A91G C108U G136U A142G | ≤ -4.2
A30U G83A C95A U135G | ≤ -4.2
A29U C38A G50C A52C A66U G74C C108G C132A | ≤ -4.2
